Measured values from patent US20070243589A1 (Pfizer, published 2007).

T1: human IL-22 (human, UniProt Q9GZX6 34-179)
T1 sequence: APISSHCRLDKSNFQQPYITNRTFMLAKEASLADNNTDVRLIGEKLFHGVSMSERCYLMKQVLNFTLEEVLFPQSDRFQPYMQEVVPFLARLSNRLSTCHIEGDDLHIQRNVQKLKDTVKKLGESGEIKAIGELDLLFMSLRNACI

T2: biotinylated IL-22 with an N-terminal His/FLAG tag (bio.IL-22H/F) (human, UniProt Q9GZX6 34-179, biotinylated (site not stated))
T2 construct: not shown: N-terminal His/FLAG tag
T2 sequence: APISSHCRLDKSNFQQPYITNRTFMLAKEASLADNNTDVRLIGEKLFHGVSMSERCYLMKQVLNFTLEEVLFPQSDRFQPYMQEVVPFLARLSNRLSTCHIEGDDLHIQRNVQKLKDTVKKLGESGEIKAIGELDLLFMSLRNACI


Legend:
human IL-22 = target: T1, human IL-22; assay: cell-based or functional assay
[1] = target: T2, biotinylated IL-22 with an N-terminal …; assay: DELFIA competition assay: scFv titrated against bio.IL-22H/F binding to the captured IL-22 receptor complex
Description: Microtiter plates were coated with an IL-22 receptor complex antibody (1 μg/ml in PBS), and incubated for 1.5 hours at room temperature. Plates were washed three times in PBST, and blocked for 1 hour at room temperature with 2% MPBS. After a further 3 washes, diluted cell conditioned medium containing an IL-22 receptor complex was added and incubated overnight at 4° C. Crude scFv supernatants were prepared as described above. The following day, 25 μl of diluted scFv sample and 25 μl of bio.IL-22H/F (6 ng/ml) were added to the washed plates, and incubated for 1.5 hours at room temperature. Plates were washed 3 times in PBST, then binding of bio.IL-22H/F to the IL-22 receptor complex was detected with Europium-Streptavidin and the DELFIA® reagent kit (PerkinElmer). Time Resolved Fluorescence was measured using a Victor 2™ Plate Reader (Perkin Elmer).
Purified scFv from positive clones identified from the screening were tested in the DELFIA® IL-22 receptor complex competition assay as described above. A titration of scFv concentrations was used in order to establish the clone potency as measured by IC₅₀ values in the assay. Fourteen optimized clones were designated 097D09, 062A09, 062G05, 087B03, 367D04, 368D04, 166B06, 166G05, 375G06, 376B10, 354A08, 355B06, 355E04, and 356A11.

| IC50 of scFv in BaF3-IL-22 proliferation assay (human IL-22) | IC50 [1] | Binder |
| --- | --- | --- |
| 124 pM | 550 pM | 356A11 scFv (non-germlined) (scFv, Optimized clone derived from GIL92) scFv: QVQLVQSGAEVKKPGASVKVSCKASGYTFTNYYMHWVRQAPGQGLEWVGWINPYTGSAFYAQKFRGRVTMTRDTSINTAYMELSRLGSDDTAVYYCAREPEKFDSDDSDVWGRGTMVTVSGGGGSSGGGGSGGSGSAQAVLTPPSVSGAPGQRVTISCTGSSSNIGAGYGVHWYQQLPGTAPKLIIYGDSSRPSGVPDRFSGSKSGTSASLAITGLQAEDEADYYCQSYDNSLSGYVFGTGTQLTVLSA |
| 160 pM | 330 pM | 367D04 scFv (non-germlined) (scFv, Optimized clone derived from GIL60) scFv: EVQLVESGGGVVRPGGSLRLSCAASGFTFDDYGMNWVRQAPGKGLEWVSGVNWNGGTRDYAASVKGRFTISRDNAKNSLYLQMNSLRAEDTALYYCARGWYSGSPWSLGHWGRGTLVTVSSGGGGSGGGGSGGSGGGSGGSGGGSSGGGSGGGGSAQAVLTQPSSVSGSPGQSVTISCTGASGDVGAYNFVSWYQQHPGKTPKLIIYDVNKRPSGVSNRFSGSKSGNTASLTISRLQAEDESDYYCSSYTSRYTTEFGGGTKVTVLGAAAH |

More lines, now with the values behind:

| Binder | IC50 of scFv in BaF3-IL-22 proliferation assay (human IL-22) | IC50 [1] |
| --- | --- | --- |
| 355E04 scFv (non-germlined) (scFv, Optimized clone derived from GIL92) scFv: QVQLVQSGAEVKKPGASVKVSCKASGYTFTHYYMHWVRQAPGQGLEWVGWINPYTGGAFYAQKFQGRVTMTRDTSINTAYMELSRLGSDDTAVYYCAREPEKFDSPNAEIWGRGTMVTISSEGGGSGGGGSGGSGSAQAVLTQPSSVSGAPGQRVTISCTGSSSNIGAGYGVHWYQQLPGTAPKLLIYGNSNRPSGVPDRFSGSKSGTSASLAITGLQAEDEADYYCQSYDSSLSGYVFGTGTQLTVLSA | 192 pM | 410 pM |
| 062G05 scFv (non-germlined) (scFv, Optimized clone derived from GIL16) scFv: QVQLVESGAEVKKPGASVKVSCKASGYTFTSYGISWVRQAPGQGLEWMGWISAYTGNTNYAQKFQGRVTMTTDTSTSTAYMELRSLRSDDTAVYYCARDRGYYDAFDIWGQGTLVTVSSGGGGSGGGGSGGGGSDIQMTQSPSTLSASIGDRVTITCRASEGIYHWLAWYQQKPGKAPKLLIYKASSLASGAPSRFSGSGFGTDFTLTISSLQPDDFATYYCQQMGEWKAAFGGGTKLEIKRAAAH | 182 pM | 100 pM |
| 062A09 scFv (non-germlined) (scFv, Optimized clone derived from GIL16) scFv: QVQLVESGAEVKKPGASVKVSCKASGYTFTSYGISWVRQAPGQGLEWMGWVSAYTGNTNYAQKFQGRVTMTTDTSTSTAYMELRGLRSDDTAVYYCARDRGYYDAYDIWGQGTLVTVSSGGGGSGGGGSGGGGSDIQMTQSPSTLSASIGDRVTITCRASEGIYHWLAWYQQKPGKAPKLLIYKASSLASGAPSRFSGSGFGTDFTLTISSLQPDDFATYYCQQMGEYNATIGGGTKLEIKRAAAH | 267 pM | 130 pM |
| 087B03 scFv (non-germlined) (scFv, Optimized clone derived from GIL60) scFv: EVQLVESGGGVVRPGGSLRLSCAASGFTFDDYGMNWVRQAPGKGLEWVSGVNWNGGTRDYAASVKGRFTISRDNAKNSLYLQMNSLRAEDTALYYCARGWYSGAAWNMGYWGRGTLVTVSSGGGGSGGGGSGGGGSAQAVLTQPSSVSGSPGQSITISCTGASGDVGAYNFVSWYQQHPGKTPKLIIYDVNKRPSGVSNRFSGSKSSNTASLTISGLQAEDESDYYCSSYTSTFSVVFGGGTKVTVLGAAAH | 212 pM | 120 pM |
